Data as given in patent US20180305465A1.

Columns and labels:
[1] = molecular target: Recombinant minimally biotinylated cynomolgus CD38-His (Sino Biological Inc.) (cynomolgus) (UniProt Q5VAN0); assay: BLI, Octet HTX; biotinylated CD38-His on streptavidin tips (2 nm), antibody in solution; 1:1 model, kd/ka
[2] = molecular target: Recombinant minimally biotinylated human CD38-His (Fisher Scientific) (human) (UniProt P28907); assay: as above
[3] = molecular target: cynomolgus CD38 on cynomolgus B cells (PBMCs) (cynomolgus) (UniProt Q5VAN0); assay: cell-based or functional assay
[4] = molecular target: Recombinant minimally biotinylated cynomolgus CD38-His (Sino Biological Inc.) (cynomolgus) (UniProt Q5VAN0); assay: Absolute KD; BLI, Octet HTX, CD38-His at five loading levels 0.3-2 nm, plateau of measured KD as loading decreases
[5] = molecular target: Recombinant minimally biotinylated human CD38-His (Fisher Scientific) (human) (UniProt P28907); assay: as above
[6] = molecular target: Recombinant human CD3ε-Fc (human); assay: SPR, SensiQ Pioneer FE; CD3ε-Fc amine coupled to CM5 chip; equilibrium analysis
[7] = molecular target: Recombinant cynomolgus CD3ε-Fc (cynomolgus) (UniProt Q95LI5); assay: as above
[8] = molecular target: Recombinant human CD3ε-Fc (human); assay: Absolute KD; SPR, Biacore T200, CD3ε-Fc amine coupled to CM5 at lowest usable density; koff/kon, 1:1 global fit

Sequence of Recombinant minimally biotinylated cynomolgus CD38-His (Sino Biological Inc.) (cynomolgus) (Q5VAN0 44-301 limits assumed): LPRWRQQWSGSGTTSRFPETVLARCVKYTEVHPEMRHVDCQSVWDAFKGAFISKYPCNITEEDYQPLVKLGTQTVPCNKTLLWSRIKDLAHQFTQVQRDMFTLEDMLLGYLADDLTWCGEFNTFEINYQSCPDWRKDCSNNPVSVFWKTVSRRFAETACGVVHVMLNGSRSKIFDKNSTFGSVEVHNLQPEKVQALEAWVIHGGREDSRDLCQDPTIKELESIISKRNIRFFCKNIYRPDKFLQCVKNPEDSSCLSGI
Sequence of Recombinant human CD3ε-Fc (human) (chain, as listed by the source): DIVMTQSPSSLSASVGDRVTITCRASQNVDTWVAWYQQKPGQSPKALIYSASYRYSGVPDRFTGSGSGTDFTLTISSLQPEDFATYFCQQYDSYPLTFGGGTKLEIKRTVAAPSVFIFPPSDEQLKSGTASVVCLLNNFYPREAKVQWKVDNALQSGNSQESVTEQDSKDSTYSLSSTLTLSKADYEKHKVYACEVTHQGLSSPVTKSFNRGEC
Sequence of Recombinant minimally biotinylated human CD38-His (Fisher Scientific) (human) (P28907 43-300 limits assumed): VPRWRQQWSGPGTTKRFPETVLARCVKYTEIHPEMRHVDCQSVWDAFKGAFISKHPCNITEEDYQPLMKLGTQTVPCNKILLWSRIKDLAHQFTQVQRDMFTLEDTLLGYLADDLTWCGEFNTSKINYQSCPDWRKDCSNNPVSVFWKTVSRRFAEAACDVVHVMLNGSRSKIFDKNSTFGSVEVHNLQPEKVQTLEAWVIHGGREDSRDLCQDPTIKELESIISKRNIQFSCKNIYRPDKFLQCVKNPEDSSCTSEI
Sequence of cynomolgus CD38 on cynomolgus B cells (PBMCs) (cynomolgus) (Q5VAN0 whole entry): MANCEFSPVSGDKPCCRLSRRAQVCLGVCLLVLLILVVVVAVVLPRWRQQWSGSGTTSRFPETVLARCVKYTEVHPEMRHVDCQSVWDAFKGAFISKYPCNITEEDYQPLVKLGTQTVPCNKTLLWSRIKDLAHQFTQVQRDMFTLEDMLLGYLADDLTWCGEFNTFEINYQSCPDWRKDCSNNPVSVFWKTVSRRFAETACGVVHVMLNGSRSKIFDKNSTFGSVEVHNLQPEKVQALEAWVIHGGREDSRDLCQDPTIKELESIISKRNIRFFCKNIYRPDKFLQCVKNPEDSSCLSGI
Sequence of Recombinant cynomolgus CD3ε-Fc (cynomolgus) (Q95LI5 22-117 limits assumed): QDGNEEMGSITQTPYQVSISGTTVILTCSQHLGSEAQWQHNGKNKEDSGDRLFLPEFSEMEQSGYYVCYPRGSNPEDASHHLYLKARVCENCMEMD

Kd [1]: 2.8 nM | Kd [2]: 2.5 nM | Cyno B Cell TDCC EC50 [3]: 0.082 nM | Kd [4]: 7.5 nM | Kd [5]: 8.9 nM | Kd [6]: 29.7 nM | Kd [7]: 33.5 nM | Kd [8]: 35.6 nM
Substance: XmAb18968 (412220) (bispecific antibody)
